Like-named read-outs stand apart in the source and are kept apart here.
T1: FcgRIIa R (human, UniProt P12318 34-217)
T1 construct: extracellular domain; also called FcγRIIa R; FcγRIIa type R; not shown: His tag attached to the C terminus
T1 sequence (looked up): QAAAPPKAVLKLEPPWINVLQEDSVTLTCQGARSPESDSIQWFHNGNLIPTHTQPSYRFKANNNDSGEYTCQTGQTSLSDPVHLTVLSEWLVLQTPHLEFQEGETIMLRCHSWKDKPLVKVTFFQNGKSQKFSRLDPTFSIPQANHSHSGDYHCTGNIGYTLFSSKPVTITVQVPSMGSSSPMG

T2: FcgRIIa H (human, UniProt P12318 34-217)
T2 construct: extracellular domain; also called FcγRIIa H; FcγRIIa type H; not shown: His tag attached to the C terminus
T2 sequence (looked up): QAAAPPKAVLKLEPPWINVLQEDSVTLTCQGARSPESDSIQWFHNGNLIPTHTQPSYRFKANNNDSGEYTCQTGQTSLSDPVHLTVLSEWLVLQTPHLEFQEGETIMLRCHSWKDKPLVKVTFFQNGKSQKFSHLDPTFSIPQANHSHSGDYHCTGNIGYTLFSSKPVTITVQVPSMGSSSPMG

T3: FcgRIIb (human, UniProt P31994 43-217)
T3 construct: extracellular domain; also called FcγRIIb; not shown: His tag attached to the C terminus
T3 sequence (looked up): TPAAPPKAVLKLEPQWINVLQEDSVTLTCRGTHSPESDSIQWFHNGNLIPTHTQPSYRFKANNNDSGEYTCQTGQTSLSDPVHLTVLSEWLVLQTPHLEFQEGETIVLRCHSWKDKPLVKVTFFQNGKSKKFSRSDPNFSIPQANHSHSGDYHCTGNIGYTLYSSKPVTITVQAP


Assays:
Test in all cases: SPR (Biacore); KD of H240-Kn061/H240-Hl071/L73-k0 divided by KD of the variant
FcgRIIa R = target: T1, FcgRIIa R
Description: (§1) The antibodies were assessed for the binding to each FcgR. […] The resultant value was defined as relative KD, and used as an assessment indicator.
(§2) Analysis of interaction between obj ective antibody and the FcγR was carried out using Biacore T100 (GE Healthcare), Biacore T200, Biacore A100, and Biacore 4000. HBS-EP+ (GE Healthcare) was used as the running buffer, and the measurement temperature was set to 25° C. Chips produced by immobilizing the antigen peptide by the amine coupling method to a Series S sensor Chip CM5 (GE Healthcare), chips produced by allowing preliminarily biotinylated antigen peptides to interact with and immobilize onto a Series S Sensor Chip SA (certified) (GE Healthcare), chips produced by immobilizing Protein L (ACTIGEN, BioVision) to Series S Sencor Chip CM5 (GE Healthcare), or chips produced by immobilizing Protein A/G (Thermo Scientific) to Series S Sencor Chip CM5 (GE Healthcare) were used. Antibodies of interest were captured onto these chips, and allowed to interact to each FcγR diluted with running buffer.

FcgRIIa H = target: T2, FcgRIIa H
Description: as §1, §2

FcgRIIb [1] = target: T3, FcgRIIb
Description: as §1, §2

FcgRIIIa F [2] = target: T4, FcgRIIIa F (human, UniProt P08637 17-208)
T4 construct: extracellular domain; also called FcγRIIIa F; 3aF; not shown: His tag attached to the C terminus
Description: as §1, §2

FcgRIIIa V [3] = target: T5, FcgRIIIa V (human, UniProt P08637 17-208)
T5 construct: extracellular domain; also called FcγRIIIa V; not shown: His tag attached to the C terminus
Description: as §1, §2

FcgRIIb [4] = target: T3, FcgRIIb; remark: listed apart in the source
Description: as §1, §2

FcgRIIIa F [5] = target: T4, FcgRIIIa F; remark: listed apart in the source
Description: as §1, §2

FcgRIIIa V [6] = target: T5, FcgRIIIa V; remark: listed apart in the source
Description: as §1, §2

T5 sequence (P08637 17-208 F176V limits assumed): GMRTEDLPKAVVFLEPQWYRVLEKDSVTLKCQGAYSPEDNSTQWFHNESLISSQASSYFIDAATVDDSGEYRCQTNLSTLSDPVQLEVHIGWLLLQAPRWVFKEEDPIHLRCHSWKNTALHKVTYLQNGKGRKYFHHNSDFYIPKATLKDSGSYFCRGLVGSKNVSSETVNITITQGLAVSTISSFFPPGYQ
T4 sequence (P08637 17-208): as the sequence (P08637 17-208 F176V limits assumed) above, with V160F counted along it

Relative KD (FcgRIIa R) | Relative KD (FcgRIIa H) | Relative KD (FcgRIIb [1]) | Relative KD (FcgRIIIa F [2]) | Relative KD (FcgRIIIa V [3]) | Relative KD (FcgRIIb [4]) | Relative KD (FcgRIIIa F [5]) | Relative KD (FcgRIIIa V [6]) | Binder
0.5 | 0.5 | 0.2 | 1.2 | 1.3 | 0.2 | 1.2 | 1.3 | H240-Kn061 (Y235A)/H240-Hl071/L73-k0 (antibody, human IgG1, kappa) heavy 1: QDQLVQSGAEVKKPGASVKVSCKASGFNIKDTYIQWVRQAPGQGLEWMGRIDPLRKQTKYREKFEGRVTITADTSTNTAYMELSSLRSEDTAVYYCVRSGREFDYWGQGTLVTVSSASTKGPSVFPLAPSSKSTSGGTAALGCLVKDYFPEPVTVSWNSGALTSGVHTFPAVLQSSGLYSLSSVVTVPSSSLGTQTYICNVNHKPSNTKVDKKVEPKSCDKTHTCPPCPAPEYAWGPSVFLFPPKPKDTLMISRTPEVTCVVVDVSDEDPEVKFNWYVDGVEVHNAKTKPREEQYNATYRVVSVLTVLHQDWLNGKEYKCKVSNKALPAPIEKTISKAKGQPREPQVCTLPPSRDELTKNQVSLWCLVKGFYPSDIAVEWESNGQPENNYKTTPPVLDSDGSFFLYSKLTVDKSRWQQGNVFSCSVMHEALHNHYTQKSLSLSP heavy 2: QDQLVQSGAEVKKPGASVKVSCKASGFNIKDTYIQWVRQAPGQGLEWMGRIDPLRKQTKYREKFEGRVTITADTSTNTAYMELSSLRSEDTAVYYCVRSGREFDYWGQGTLVTVSSASTKGPSVFPLAPSSKSTSGGTAALGCLVKDYFPEPVTVSWNSGALTSGVHTFPAVLQSSGLYSLSSVVTVPSSSLGTQTYICNVNHKPSNTKVDKKVEPKSCDKTHTCPPCPAPELLGGPSVFLFPPKPKDTLMISRTPEVTCVVVDVSHEDPEVKFNWYVDGVEVHNAKTKPREEQYNSTYRVVSVLTVLHQDWLNGKEYKCKVSNDALPMPIEETISKAKGQPREPQVYTLPPSRCELTKNQVSLSCAVKGFYPSDIAVEWESNGQPENNYKTTPPVLDSDGSFFLVSKLTVDKSRWQQGNVFSCSVMHEALHNHYTQKSLSLSP light: DIQMTQSPSSLSASVGDRVTITCRASQDIHKYIAWYQQKPGQAPRLLIQYTSTLQPGVPSRFSGSGSGTDYTFTISSLQPEDIATYYCLQYEQLRTFGGGTKVEIKRTVAAPSVFIFPPSDEQLKSGTASVVCLLNNFYPREAKVQWKVDNALQSGNSQESVTEQDSKDSTYSLSSTLTLSKADYEKHKVYACEVTHQGLSSPVTKSFNRGEC
3.8 | 3.5 | 1.1 | 0.8 | 0.7 | – | – | – | H240-Kn061/H240-Hl071 (F241N)/L73-k0 (antibody, human IgG1, kappa) heavy 1: QDQLVQSGAEVKKPGASVKVSCKASGFNIKDTYIQWVRQAPGQGLEWMGRIDPLRKQTKYREKFEGRVTITADTSTNTAYMELSSLRSEDTAVYYCVRSGREFDYWGQGTLVTVSSASTKGPSVFPLAPSSKSTSGGTAALGCLVKDYFPEPVTVSWNSGALTSGVHTFPAVLQSSGLYSLSSVVTVPSSSLGTQTYICNVNHKPSNTKVDKKVEPKSCDKTHTCPPCPAPEYYWGPSVFLFPPKPKDTLMISRTPEVTCVVVDVSDEDPEVKFNWYVDGVEVHNAKTKPREEQYNATYRVVSVLTVLHQDWLNGKEYKCKVSNKALPAPIEKTISKAKGQPREPQVCTLPPSRDELTKNQVSLWCLVKGFYPSDIAVEWESNGQPENNYKTTPPVLDSDGSFFLYSKLTVDKSRWQQGNVFSCSVMHEALHNHYTQKSLSLSP heavy 2: QDQLVQSGAEVKKPGASVKVSCKASGFNIKDTYIQWVRQAPGQGLEWMGRIDPLRKQTKYREKFEGRVTITADTSTNTAYMELSSLRSEDTAVYYCVRSGREFDYWGQGTLVTVSSASTKGPSVFPLAPSSKSTSGGTAALGCLVKDYFPEPVTVSWNSGALTSGVHTFPAVLQSSGLYSLSSVVTVPSSSLGTQTYICNVNHKPSNTKVDKKVEPKSCDKTHTCPPCPAPELLGGPSVNLFPPKPKDTLMISRTPEVTCVVVDVSHEDPEVKFNWYVDGVEVHNAKTKPREEQYNSTYRVVSVLTVLHQDWLNGKEYKCKVSNDALPMPIEETISKAKGQPREPQVYTLPPSRCELTKNQVSLSCAVKGFYPSDIAVEWESNGQPENNYKTTPPVLDSDGSFFLVSKLTVDKSRWQQGNVFSCSVMHEALHNHYTQKSLSLSP light: DIQMTQSPSSLSASVGDRVTITCRASQDIHKYIAWYQQKPGQAPRLLIQYTSTLQPGVPSRFSGSGSGTDYTFTISSLQPEDIATYYCLQYEQLRTFGGGTKVEIKRTVAAPSVFIFPPSDEQLKSGTASVVCLLNNFYPREAKVQWKVDNALQSGNSQESVTEQDSKDSTYSLSSTLTLSKADYEKHKVYACEVTHQGLSSPVTKSFNRGEC
0.7 | 0.8 | 0.3 | 1.3 | 1 | – | – | – | H240-Kn061/H240-Hl071 (V240H)/L73-k0 (antibody, human IgG1, kappa) heavy 1: QDQLVQSGAEVKKPGASVKVSCKASGFNIKDTYIQWVRQAPGQGLEWMGRIDPLRKQTKYREKFEGRVTITADTSTNTAYMELSSLRSEDTAVYYCVRSGREFDYWGQGTLVTVSSASTKGPSVFPLAPSSKSTSGGTAALGCLVKDYFPEPVTVSWNSGALTSGVHTFPAVLQSSGLYSLSSVVTVPSSSLGTQTYICNVNHKPSNTKVDKKVEPKSCDKTHTCPPCPAPEYYWGPSVFLFPPKPKDTLMISRTPEVTCVVVDVSDEDPEVKFNWYVDGVEVHNAKTKPREEQYNATYRVVSVLTVLHQDWLNGKEYKCKVSNKALPAPIEKTISKAKGQPREPQVCTLPPSRDELTKNQVSLWCLVKGFYPSDIAVEWESNGQPENNYKTTPPVLDSDGSFFLYSKLTVDKSRWQQGNVFSCSVMHEALHNHYTQKSLSLSP heavy 2: QDQLVQSGAEVKKPGASVKVSCKASGFNIKDTYIQWVRQAPGQGLEWMGRIDPLRKQTKYREKFEGRVTITADTSTNTAYMELSSLRSEDTAVYYCVRSGREFDYWGQGTLVTVSSASTKGPSVFPLAPSSKSTSGGTAALGCLVKDYFPEPVTVSWNSGALTSGVHTFPAVLQSSGLYSLSSVVTVPSSSLGTQTYICNVNHKPSNTKVDKKVEPKSCDKTHTCPPCPAPELLGGPSHFLFPPKPKDTLMISRTPEVTCVVVDVSHEDPEVKFNWYVDGVEVHNAKTKPREEQYNSTYRVVSVLTVLHQDWLNGKEYKCKVSNDALPMPIEETISKAKGQPREPQVYTLPPSRCELTKNQVSLSCAVKGFYPSDIAVEWESNGQPENNYKTTPPVLDSDGSFFLVSKLTVDKSRWQQGNVFSCSVMHEALHNHYTQKSLSLSP light: DIQMTQSPSSLSASVGDRVTITCRASQDIHKYIAWYQQKPGQAPRLLIQYTSTLQPGVPSRFSGSGSGTDYTFTISSLQPEDIATYYCLQYEQLRTFGGGTKVEIKRTVAAPSVFIFPPSDEQLKSGTASVVCLLNNFYPREAKVQWKVDNALQSGNSQESVTEQDSKDSTYSLSSTLTLSKADYEKHKVYACEVTHQGLSSPVTKSFNRGEC

Source: patent publication US20180155451A1 (published 2018)
